# Experimental data reported in a protein production outcome set (Wang et al. 2014).
# Experiment: label from the status in PepcDB records
row,Sequence,protein production
1,MTKAPSLAFLCIQSLKIQLLESDNPIPDLYELPSELLDGIVAHLPALALQKFQTNMPFHCLDSYESGDDCCLITGRKRARNDVLGSSWKLLFKLRWPDFVDRVESPADWQQLYWEKHLQNCVDEAAEVALRPTFSGRICSINVSDNILRYICHEEHIMTCQNCVCKELSFHFQTFGPYLRCLRLLNVLCVTETSELLRTSKLRSLVLRWIRSEKHVEPLCKLLIQSRETLTSLELIHCKLSLSSISAICTSLHEKGIHTTGMQRFCIKTSSIEIDPLAAPSAFVSFLMSVRTLHSLHFGDSNLDRYFARMVFSTLLDSSSNLSSLDLSENNISGWLSTFSCKSVVGSLSSGKSLQSLCKLNLRGNELDRYDAENLAHALLHMPGLESLDLSGNPIEDSGIRSLISYFTKNPDSRLADLNLENCELSCCGVIEFLDTLSMLEKPLKFLSVADNALGSEVAEAVVNSFTISIESLNIMGIGLGPLGFLALGRKLEKVSKKLLSINISKNRGGLETARFLSKLIPLAPKLISIDASYNLMPPEALLMLCDSLRTAKGDLKRLDMTGNSCISHEADHSSLLHEFQHNGEPIFVLPSSSVSHVPYDDDP,failed
2,MTKEKSTVPRLRFPGFTDAWKQRKLGEVADFSIKTNSLSRDKLSSYFYEVQNIHYGDILTKYDAILDVCNKELPSIIGSTISDFADALLSEGDIVFADAAEDSTVGKAIEVRNFKGKNVVSGLHTIVARPKVSYAPYYLGYLINSTAYHNQILPLMQGTKVSSISKANLKSTTVVFPTLPEQEAIGSFFSDLDQLITLHQRKLDDVKELKKALLQKMFPKGNGNDFPELRFPEFTDAWKQRKLGEFMKESKILGSKGDIARKLTVRLWGRGVVSKKEIYSGSSATQYYIRKSGQFIYGKLDFLNQAFGIIPPELDGYESTLDSPAFDLLKGINGQFLLEFVSRKEFYYYQGNIANGSRKAKRIHTETFLGMPISLPTLPEQEAIGSFFSDLDQLITLHQRK,failed
3,MTKETDDDDNDIPIQEDDEEKNPDQDYQELLDGLLNLSGRQLLMFYWDHELTEAVREGFEVISQKWMKGIDQMWVHWNTSRATVRSESASQFRNSDRGGLGPHRNISSQKSFVQVHEELEELYGRHVSLGEVFMKTHTRADGSFVDAKAEKVAEVYKKACEEKLTEIDDDGPKTSMNSSELSTHRDLNIDDKNEIFLQSAS,failed
4,MTKFYKFLISIIILALVCLIFFLAKSNILNLDSLKNLILSSGYFAPLIYIIAFALVPLTFFPDSILAILGGSIFGLGGGFLYTSIGALIGGSISFFISRILGQSFVEKFENDKLKNIQELLKDNGFLMILLLRLIPLFPFDLISYGAGLTKISYKDFALGTLIGTIPGILVFVNLGAQWITFNKTSIYLSVSLLILFIIVSVFLKKIYINKHLAKGN,failed
5,MTKGESTMQRIAVLSDAETATGYRLAGATVIEASPEDALRTLEQAITDGGYGLIAVDTGLIPDPATATARIMRGRDLPILLPIPSLRDAFSSDTVDAKAYMGKLVRDTIGFDIKLLEHHHHHH,not failed
6,MTKIACVIVTYNRKQLLEEALNSVLIQTESPEYVFVIDNASTDGTEKYINDKFNFDNRQWHYVRCSQNLGGSAGFAQGMRLALQTDCSWISISDDDAIFEPGYFAALRKGIKQYPEQSVFSGSVLLPDGKHDMMHREVITNSATLTVRCVTDETYKHDFSYDIFSFVGILLSRQVIEAIGLPEQDYFIRFDDFEYAVRALKFGRFMNLSAAKVLHKTTYTRSAIAPWKEYYVMRNRIALLIKHRGNNHTVRWYCRRFLLRKLLAILLFSNRRRQARSLVNAYVKGYQDGWHARLGRQLAFLPS,failed
7,MTKILAIIGARLNSSRLAGKHLLPLACDAAGNTLPIIGHILRRLKTCSTISSIELATTADEFNQPLINWAQENQLTCVPFEGDVNDLMGRLDRIIQRQQPDYIVYICGDCPLIDPNFIDHALLALKASDKDTITLKEGIISLHEGIGFYTRSGWNRLMAVSDCVMSREHVGYGDKLRPVLTKLYIDDSGNYGKITHRISVDTHADYRFMVEVYRRWYVNNPTETVVSLEWVQEELLKDSALFAINAHVQQKAANKNYAKASIYCHLGPQIGLGHFKRSELIANALQEHLSLGVNIHAYSEAGQRLDSSSKVVWHEDEQALLSALTEDQNPLVLLDFHPNFIDLESFANRLAGLAKHGAKRIGIDKMAPLLDELDWLFIPSFNSPTHHPKISAGWRNYLFSTIPQATKQAQILVLTGGSDALGYGRELPTILDSIGTDWPILWIQGPLAPAPQLTPNSAIVVQQNPDNLKEIIAQSEIILSCYGLSLFESIYGKAATLLLPPQHLCDEAELFALNQERCCLVSDSLEEAKMMLQQLLTEPEQRRSLQNQATRVFESHQGIQALIDDIHHLLGAVN,failed
